From IntAct's records for PubMed 21376300 come the findings set out here.

The labels stand for the following.
B1: Voltage-dependent calcium channel gamma-2 subunit (Rattus norvegicus (Rat)), Q71RJ2 (parent)
chain: MGLFDRGVQMLLTTVGAFAAFSLMTIAVGTDYWLYSRGVCKTKSVSENETSKKNEEVMTHSGLWRTCCLEGNFKGLCKQIDHFPEDADYEADTAEYFLRAVRASSIFPILSVILLFMGGLCIAASEFYKTRHNIILSAGIFFVSAGLSNIIGIIVYISANAGDPSKSDSKKNSYSYGWSFYFGALSFIIAEMVGVLAVHMFIDRHKQLRATARATDYLQASAITRIPSYRYRYQRRSRSSSRSTEPSHSRDASPVGVKGFNTLPSTEISMYTLSRDPLKAATTPTATYNSDRDNSFLQVHNCIQKDSKDSLHANTANRRTTPV
B2: Band 4.1-like protein 1 (Rattus norvegicus (Rat)), Q9WTP0 (parent)
chain: MTTETGPDSEVKKAQEETPQQPEAAAAVTTPVTPAGHSHPETNSNEKHLTQQDTRPAEQSLDMEEKDYCEADGLSERTTPSKAQKSPQKIAKKFKSATCRVTLLDASEYECEVEKHGRGQVLFDLVCEHLNLLEKDYFGLTFCDADSQKNWLDPSKEIKKQIRSSPWNFAFTVKFYPPDPAQLTEDITRYYLCLQLRADIITGRLPCSFVTHALLGSYAVQAELGDHDTEEHVGNYVSELRFAPNQTRELEERIMELHKTYRGMTPGEAEIHFLENAKKLSMYGVDLHHAKDSEGIDIMLGVCANGLLIYRDRLRINRFAWPKILKISYKRSNFYIKIRPGEYEQFESTIGFKLPNHRSAKRLWKVCIEHHTFFRLVSPEPPPKGFLVMGSKFRYSGRTQAQTRQASALIDRPAPFFERSSSKRYTMSRSLDGAEFSRPASVSENHDAGPDGDKREDDAESGGRRSEAEEGEVRTPTKIKELKPEQETTPRHKQEFLDKPEDVLLKHQASINELKRTLKEPNSKLIHRDRDWERERRLPSSPASPSPKGTPEKASERAGLREGSEEKVKPPRPRAPESDTGDEDQDQERDAVFLKDNHLAIERKCSSITVSSTSSLEAEVDFTVIGDYHGGAFEDFSRSLPELDRDKSDSETEGLVFARDLKGPSSQEDESGGIEDSPDRGACSTPELPQFESVKAETMTVSSLAIRKKIEPEAMLQSRVSTADSTQVDGGAPAAKDFMTTPPCITTETISTTMENSLKSGKGAAAMIPGPQTVATEIRSLSPIIGKDVLTSTYGATAETLSTSTTTHVTKTVKGGFSETRIEKRIIITGDEDVDQDQALALAIKEAKLQHPDMLVTKAVVYRETDPSPEERDKKPQES

In one experiment the parent is B1. Particulars: with gria1_rat Gria1, P19490.
Target sequence in this assay (P19490 whole entry): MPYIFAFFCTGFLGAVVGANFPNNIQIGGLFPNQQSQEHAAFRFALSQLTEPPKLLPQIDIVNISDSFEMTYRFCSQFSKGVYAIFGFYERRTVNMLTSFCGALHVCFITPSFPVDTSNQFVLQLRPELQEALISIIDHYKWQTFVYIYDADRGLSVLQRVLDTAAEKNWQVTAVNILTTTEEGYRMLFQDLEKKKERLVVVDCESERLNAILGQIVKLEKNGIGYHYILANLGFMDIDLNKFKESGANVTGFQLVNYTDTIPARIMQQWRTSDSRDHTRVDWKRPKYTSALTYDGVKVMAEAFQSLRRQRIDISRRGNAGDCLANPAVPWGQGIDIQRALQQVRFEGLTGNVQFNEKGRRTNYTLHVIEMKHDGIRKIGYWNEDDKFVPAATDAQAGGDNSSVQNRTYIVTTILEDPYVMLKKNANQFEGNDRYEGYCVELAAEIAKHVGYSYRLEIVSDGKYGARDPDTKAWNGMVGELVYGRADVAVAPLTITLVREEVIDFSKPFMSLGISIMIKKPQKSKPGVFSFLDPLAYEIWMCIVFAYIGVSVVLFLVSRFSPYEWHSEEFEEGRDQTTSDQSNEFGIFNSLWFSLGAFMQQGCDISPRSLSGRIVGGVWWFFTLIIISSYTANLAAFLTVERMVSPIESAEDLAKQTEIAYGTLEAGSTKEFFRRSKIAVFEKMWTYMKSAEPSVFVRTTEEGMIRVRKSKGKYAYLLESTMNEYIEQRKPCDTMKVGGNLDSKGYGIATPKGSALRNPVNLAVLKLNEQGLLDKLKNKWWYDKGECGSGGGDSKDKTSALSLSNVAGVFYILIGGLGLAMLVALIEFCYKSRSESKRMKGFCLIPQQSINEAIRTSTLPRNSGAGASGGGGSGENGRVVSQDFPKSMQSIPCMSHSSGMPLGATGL
As for V143L, the “effect of a mutation on the interaction” value is “decreasing interaction”.

Variants of B1 are the subject of a further experiment. Particulars: with gria2_rat Gria2, P19491.
Chain of gria2_rat Gria2, P19491 (P19491 whole entry): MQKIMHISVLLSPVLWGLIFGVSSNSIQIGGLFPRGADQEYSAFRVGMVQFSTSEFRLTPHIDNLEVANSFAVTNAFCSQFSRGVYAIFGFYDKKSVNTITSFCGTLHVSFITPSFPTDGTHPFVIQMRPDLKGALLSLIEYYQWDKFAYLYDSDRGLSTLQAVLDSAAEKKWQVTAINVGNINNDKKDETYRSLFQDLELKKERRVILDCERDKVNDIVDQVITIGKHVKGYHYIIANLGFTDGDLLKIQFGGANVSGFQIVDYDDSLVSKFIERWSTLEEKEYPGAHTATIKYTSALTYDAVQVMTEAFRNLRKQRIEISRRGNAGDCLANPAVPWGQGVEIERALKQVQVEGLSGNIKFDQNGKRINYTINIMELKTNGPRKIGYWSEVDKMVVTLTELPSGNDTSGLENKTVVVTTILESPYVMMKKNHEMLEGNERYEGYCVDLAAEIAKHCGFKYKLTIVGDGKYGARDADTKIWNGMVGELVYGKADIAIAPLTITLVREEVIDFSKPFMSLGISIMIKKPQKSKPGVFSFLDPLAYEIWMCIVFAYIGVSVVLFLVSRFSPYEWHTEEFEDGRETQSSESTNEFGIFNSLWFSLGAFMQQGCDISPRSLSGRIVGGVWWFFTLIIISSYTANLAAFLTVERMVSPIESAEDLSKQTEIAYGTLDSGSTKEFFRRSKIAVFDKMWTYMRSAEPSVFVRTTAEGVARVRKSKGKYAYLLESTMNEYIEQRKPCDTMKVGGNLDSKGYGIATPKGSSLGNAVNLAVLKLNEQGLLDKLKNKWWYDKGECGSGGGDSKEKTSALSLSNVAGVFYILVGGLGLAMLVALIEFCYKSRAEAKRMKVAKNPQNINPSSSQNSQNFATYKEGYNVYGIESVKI
As to V143L, the “effect of a mutation on the interaction” value is listed as “decreasing interaction”.

Another experiment covers variants of B2. To be noted: with gria1_rat Gria1, P19490.
Target sequence in this assay (P19490 whole entry): as the sequence (P19490 whole entry) above
P852S: the “effect of a mutation on the interaction” value was “decreasing interaction”.
